Here are results for four proteins from US20160327558.

Positions count from the first letter of the chain named. Numbers in names are those of the source.

Series [1] concerns the target T1, probe 5 (FITC-LRSR-AOMK).
T1 chain: LRSR

Series [2] addresses T2, z-VRPR-FMK (not fully specified).
T2 chain: VRPR

Series [3] addresses T3, FLAG-A20, P21580.
T3 chain: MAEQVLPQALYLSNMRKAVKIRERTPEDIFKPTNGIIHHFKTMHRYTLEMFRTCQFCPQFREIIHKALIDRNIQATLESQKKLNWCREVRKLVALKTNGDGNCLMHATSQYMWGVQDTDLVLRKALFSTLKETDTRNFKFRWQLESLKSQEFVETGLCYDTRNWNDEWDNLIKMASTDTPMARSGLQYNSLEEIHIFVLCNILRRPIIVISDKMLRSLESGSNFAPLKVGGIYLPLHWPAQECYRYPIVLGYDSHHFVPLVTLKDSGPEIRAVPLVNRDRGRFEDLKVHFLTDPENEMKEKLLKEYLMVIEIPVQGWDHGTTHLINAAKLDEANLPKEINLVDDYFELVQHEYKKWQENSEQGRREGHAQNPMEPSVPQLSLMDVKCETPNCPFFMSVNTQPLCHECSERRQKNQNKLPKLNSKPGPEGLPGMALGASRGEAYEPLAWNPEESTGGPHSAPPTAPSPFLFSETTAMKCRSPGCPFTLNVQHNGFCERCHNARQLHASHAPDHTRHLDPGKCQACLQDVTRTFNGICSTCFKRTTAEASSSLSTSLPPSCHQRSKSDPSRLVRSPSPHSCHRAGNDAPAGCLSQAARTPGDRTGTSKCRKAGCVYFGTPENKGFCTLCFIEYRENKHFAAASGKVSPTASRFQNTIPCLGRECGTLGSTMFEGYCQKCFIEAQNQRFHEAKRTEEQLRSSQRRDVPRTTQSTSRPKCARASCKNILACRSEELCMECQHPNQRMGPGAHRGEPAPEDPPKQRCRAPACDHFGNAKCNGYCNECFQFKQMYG

B1: MALT1 (in vitro cleavage assay of FIG. 3C) (protein)
chain: MSLLGDPLQALPPSAAPTGPLLAPPAGATLNRLREPLLRRLSELLDQAPEGRGWRRLAELAGSRGRLRLSCLDLEQCSLKVLEPEGSPSLCLLKLMGEKGCTVTELSDFLQAMEHTEVLQLLSPPGIKITVNPESKAVLAGQFVKLCCRATGHPFVQYQWFKMNKEIPNGNTSELIFNAVHVKDAGFYVCRVNNNFTFEFSQWSQLDVCDIPESFQRSVDGVSESKLQICVEPTSQKLMPGSTLVLQCVAVGSPIPHYQWFKNELPLTHETKKLYMVPYVDLEHQGTYWCHVYNDRDSQDSKKVEIIIDELNNLGHPDNKEQTTDQPLAKDKVALLIGNMNYREHPKLKAPLVDVYELTNLLRQLDFKVVSLLDLTEYEMRNAVDEFLLLLDKGVYGLLYYAGHGYENFGNSFMVPVDAPNPYRSENCLCVQNILKLMQEKETGLNVFLLDMCRKRNDYDDTIPILDALKVTANIVFGYATCQGAEAFEIQHSGLANGIFMKFLKDRLLEDKKITVLLDEVAEDMGKCHLTKGKQALEIRSSLSEKRALTDPIQGTEYSAESLVRNLQWAKAHELPESMCLKFDCGVQIQLGFAAEFSNVMIIYTSIVYKPPEIIMCDAYVTDFPLDLDIDPKDANKGTPEETGSYLVSKDLPKHCLYTRLSSLQKLKEHLVFTVCLSYQYSGLEDTVEDKQEVNVGKPLIAKLDMHRGLGRKTCFQTCLMSNGPYQSSAATSGGAGHYHSLQDPFHGVYHSHPGNPSNVTPADSCHCSRTPDAFISSFAHHASCHFSRSNVPVETTDEIPFSFSDRLRISEK
For the protein B1, the “in vitro protease activity measurements (cleavage of fluorescent substrates)” value is “probe 5 and also z-VRPR-FMK did not only inhibit MALT1” in series [1]; “probe 5 and also z-VRPR-FMK did not only inhibit MALT1” in series [2].

B2: recombinant Caspase-8 (protein)
chain: SESQTLDKVYQMKSKPRGYCLIINNHNFAKAREKVPKLHSIRDRNGTHLDAGALTTTFEELHFEIKPHDDCTVEQIYEILKIYQLMDHSNMDCFICCILSHGDKGIIYGTDGQEAPIYELTSQFTGLKCPSLAGKPKVFFIQACQGDNYQKGIPVETDSEEQPYLEMDLSSPQTRYIPDEADFLLGMATVNNCVSYRNPAEGTWYIQSLCQSLRERCPRGDDILTILTEVNYEVSNKDDKKNMGKQMPQPTFTLRKKLVFPSD
Turning to B2, in series [1], the “in vitro protease activity measurements (DEVD-AMC cleavage)” value was “As expected, Caspase 8 activity was not affected by the diagnostic inhibitors of MALT1 of the present invention”.

B3: FLAG-MALT1 wt (MALT1 Isoform B, overexpressed in Jurkat T cells) (protein)
chain: SLLGDPLQALPPSAAPTGPLLAPPAGATLNRLREPLLRRLSELLDQAPEGRGWRRLAELAGSRGRLRLSCLDLEQCSLKVLEPEGSPSLCLLKLMGEKGCTVTELSDFLQAMEHTEVLQLLSPPGIKITVNPESKAVLAGQFVKLCCRATGHPFVQYQWFKMNKEIPNGNTSELIFNAVHVKDAGFYVCRVNNNFTFEFSQWSQLDVCDIPESFQRSVDGVSESKLQICVEPTSQKLMPGSTLVLQCVAVGSPIPHYQWFKNELPLTHETKKLYMVPYVDLEHQGTYWCHVYNDRDSQDSKKVEIIIDELNNLGHPDNKEQTTDQPLAKDKVALLIGNMNYREHPKLKAPLVDVYELTNLLRQLDFKVVSLLDLTEYEMRNAVDEFLLLLDKGVYGLLYYAGHGYENFGNSFMVPVDAPNPYRSENCLCVQNILKLMQEKETGLNVFLLDMCRKRNDYDDTIPILDALKVTANIVFGYATCQGAEAFEIQHSGLANGIFMKFLKDRLLEDKKITVLLDEVAEDMGKCHLTKGKQALEIRSSLSEKRALTDPIQGTEYSAESLVRNLQWAKAHELPESMCLKFDCGVQIQLGFAAEFSNVMIIYTSIVYKPPEIIMCDAYVTDFPLDLDIDPKDANKGTPEETGSYLVSKDLPKHCLYTRLSSLQKLKEHLVFTVCLSYQYSGLEDTVEDKQEVNVGKPLIAKLDMHRGLGRKTCFQTCLMSNGPYQSSAATSGGAGHYHSLQDPFHGVYHSHPGNPSNVTPADSCHCSRTPDAFISSFAHHASCHFSRSNVPVETTDEIPFSFSDRLRISEK
On to B3, for which the “MALT1 cleavage of A20, analyzed by western blot” value in series [3] is reported as “only wt MALT1 is capable of cleaving its substrates”.

B4: FLAG-MALT1 active site mutant C464A (C453A in Isoform B) (protein)
chain: B3 chain with C452A
With B4, in series [3], the “MALT1 cleavage of A20, analyzed by western blot” value was “only wt MALT1 is capable of cleaving its substrates (the mutant does not cleave)”.
